From PMC4168779

The substances below were run against Z protein fused to maltose binding protein, MBP-Z(N6C) (assay: cross-linking).

Row | Substance | PEPC efficiency (cross-linking efficiency)
1 | ZSPA affibody (Afb) with IetY at site 36 (designed binder) | 66%
2 | ZSPA affibody (Afb) with BrC6K at site 36, Afb(D36BrC6K) (designed binder) | 73%
3 | ZSPA affibody (Afb) with BetY at site 36 (designed binder) | 57%
